Measured values published in article PMC6328864, “Regulation of Myosin-5b by Rab11a and the Rab11 family interacting protein 2” (Bioscience Reports, 2018).

T1: Flag-Myo5b-GTD (Rattus norvegicus (Rat), UniProt P70569)
T1 chain: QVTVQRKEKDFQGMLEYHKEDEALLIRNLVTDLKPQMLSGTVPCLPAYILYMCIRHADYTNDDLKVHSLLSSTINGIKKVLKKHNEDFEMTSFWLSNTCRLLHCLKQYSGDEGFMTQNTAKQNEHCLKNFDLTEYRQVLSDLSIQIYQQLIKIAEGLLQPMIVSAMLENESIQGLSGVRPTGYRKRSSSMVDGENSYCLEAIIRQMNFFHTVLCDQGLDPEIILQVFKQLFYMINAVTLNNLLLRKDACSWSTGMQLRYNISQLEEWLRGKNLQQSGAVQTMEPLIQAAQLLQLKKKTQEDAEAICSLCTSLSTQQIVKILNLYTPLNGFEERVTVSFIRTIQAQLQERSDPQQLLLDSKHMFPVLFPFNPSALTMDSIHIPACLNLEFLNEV

B1: GST–Rab11a (natural protein, human, UniProt P62491 1-216, looked up)
chain: MGTRDDEYDYLFKVVLIGDSGVGKSNLLSRFTRNEFNLESKSTIGVEFATRSIQVDGKTIKAQIWDTAGQERYRAITSAYYRGAVGALLVYDIAKHLTYENVERWLKELRDHADSNIVIMLVGNKSDLRHLRAVPTDEARAFAEKNGLSFIETSALDSTNVEAAFQTILTEIYRIVSQKQMSDRRENDMSPSNNVVPIHVPPTTENKPKVQCCQNI
notes: Rab11a, human (cDNA by RT-PCR from human brain cDNA); GTPγS also in the pull-down buffers; source: E. coli, purified (GSH-Sepharose); not shown: GST, N-terminal, kept

Columns and labels:
Flag-Myo5b-GTD = molecular target: T1, Flag-Myo5b-GTD; experiment: GST pull-down / anti-Flag pull-down; Rab11a loaded with GTPγS/Mg2+; binding competed away by FIP2-RBD
[1] = molecular target: T2, Flag-FIP2 (full-length Rab11 family interacting protein 2) (human, UniProt Q7L804 1-512); experiment: pull-down; GSH-Sepharose; 0.5 μM GST–Rab11a (bait), 0–0.5 μM Flag-Myo5b-Tail, 0–1.0 μM Flag-FIP2 or Flag-FIP2-RBD; Buffer-B with 100 mM NaCl and 3 μM GTPγS; 4°C, 1 h; eluted with 20 mM GSH; Coomassie staining; details: both partners purified
T2 construct: not shown: Flag, N-terminal, kept

GST–Rab11a = molecular target: B1; experiment: pull-down; GSH-Sepharose; 0.5 μM GST–Rab11a (bait), 0–1.0 μM Flag-Myo5b-GTD, 0–1.0 μM Flag-FIP2-RBD; Buffer-B with 100 mM NaCl and 3 μM GTPγS; 4°C, 1 h; eluted with 20 mM GSH; Western blot (anti-Flag, anti-GST); details: both partners purified

| binding result (Flag-Myo5b-GTD) | binding result [1] | binding result (GST–Rab11a) | Binder |
| --- | --- | --- | --- |
| binds | binds |  | B1 |
|  |  | binds | Flag-FIP2-RBD (domain or fragment, human, UniProt Q7L804 452-512, looked up, not shown: Flag, N-terminal, kept) TYEEVLQELVKHKELLRRKDTHIRELEDYIDNLLVRVMEETPSILRVPYEPSRKAGKFSNS |
